Here are results for one molecule from patent publication US20050048070A1 (published 2005).

The target of experiment [1] is T1, K8(1-85)/K18(1-72) heterotypic complex (human, UniProt P05787 2-86; P05783 2-73).
T1 construct: Heterotypic complex of two GST fusion proteins; not shown: glutathione S-transferase (GST) fusion partner, modified pGEX-2T vector
T1 chain 1: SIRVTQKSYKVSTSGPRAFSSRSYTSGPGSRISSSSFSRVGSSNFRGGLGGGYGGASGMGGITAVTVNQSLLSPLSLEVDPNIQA
T1 chain 2: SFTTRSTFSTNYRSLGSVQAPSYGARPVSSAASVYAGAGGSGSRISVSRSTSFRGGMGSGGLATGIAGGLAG
In words: heterotypic association Western blot.

The target of experiment [2] is T2, K8(300-483)/intact K18 heterotypic complex.
T2 construct: one member of the group m25; not shown: N-terminal GST carrier (modified pGEX-2T) and its linker on the keratin constructs
T2 chain 1: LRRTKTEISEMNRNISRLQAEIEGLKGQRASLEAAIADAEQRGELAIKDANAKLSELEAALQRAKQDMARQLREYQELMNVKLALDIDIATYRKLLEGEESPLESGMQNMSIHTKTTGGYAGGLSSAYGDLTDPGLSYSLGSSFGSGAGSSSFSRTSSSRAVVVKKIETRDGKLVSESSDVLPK
T2 chain 2: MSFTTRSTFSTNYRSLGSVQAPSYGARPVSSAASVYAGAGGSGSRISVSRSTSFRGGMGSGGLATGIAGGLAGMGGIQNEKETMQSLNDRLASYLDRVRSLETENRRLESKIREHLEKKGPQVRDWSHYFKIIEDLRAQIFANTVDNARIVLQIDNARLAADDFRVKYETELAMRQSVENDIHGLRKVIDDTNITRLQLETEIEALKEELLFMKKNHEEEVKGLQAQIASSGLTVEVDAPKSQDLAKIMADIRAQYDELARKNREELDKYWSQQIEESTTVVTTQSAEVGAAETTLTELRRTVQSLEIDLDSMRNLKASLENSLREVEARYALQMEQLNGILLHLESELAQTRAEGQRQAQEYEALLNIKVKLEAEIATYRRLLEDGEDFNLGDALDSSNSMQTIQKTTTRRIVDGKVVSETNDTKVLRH
The experiment is described as follows: summary map of the heterotypic association assay: GST deletion protein incubated with the complementary keratin, then stained with COU-1.

The target of experiment [3] is T3, K8(130-483)/intact K18 heterotypic complex.
T3 construct: one member of the group m25; not shown: GST fusion partner (modified pGEX-2T) on the keratin proteins
T3 K8 fragment: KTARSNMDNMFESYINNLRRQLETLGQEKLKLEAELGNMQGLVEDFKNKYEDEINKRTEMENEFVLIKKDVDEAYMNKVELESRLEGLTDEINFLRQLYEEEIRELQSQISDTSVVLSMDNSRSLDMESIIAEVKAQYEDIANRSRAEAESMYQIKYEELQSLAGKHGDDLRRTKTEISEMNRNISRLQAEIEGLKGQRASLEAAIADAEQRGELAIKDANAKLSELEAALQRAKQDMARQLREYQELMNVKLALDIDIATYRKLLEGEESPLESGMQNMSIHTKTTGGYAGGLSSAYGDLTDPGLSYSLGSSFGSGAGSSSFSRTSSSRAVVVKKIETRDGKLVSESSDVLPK
T3 K18 intact: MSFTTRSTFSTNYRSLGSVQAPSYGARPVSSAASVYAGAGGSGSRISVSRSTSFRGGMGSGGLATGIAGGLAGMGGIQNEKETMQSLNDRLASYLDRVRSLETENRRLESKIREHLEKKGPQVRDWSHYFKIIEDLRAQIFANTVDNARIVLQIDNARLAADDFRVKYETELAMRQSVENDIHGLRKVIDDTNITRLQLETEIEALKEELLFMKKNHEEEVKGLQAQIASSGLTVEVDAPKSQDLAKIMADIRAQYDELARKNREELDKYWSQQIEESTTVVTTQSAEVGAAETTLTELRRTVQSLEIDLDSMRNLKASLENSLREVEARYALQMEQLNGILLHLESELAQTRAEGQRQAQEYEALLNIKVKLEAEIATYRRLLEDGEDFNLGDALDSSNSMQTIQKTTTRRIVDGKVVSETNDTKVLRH
The description is as above.

The target of experiment [4] is T4, K8(240-483)/intact K18 heterotypic complex.
T4 construct: one member of the group m25; not shown: N-terminal GST carrier (modified pGEX-2T) and its linker on the keratin constructs
T4 chain 1: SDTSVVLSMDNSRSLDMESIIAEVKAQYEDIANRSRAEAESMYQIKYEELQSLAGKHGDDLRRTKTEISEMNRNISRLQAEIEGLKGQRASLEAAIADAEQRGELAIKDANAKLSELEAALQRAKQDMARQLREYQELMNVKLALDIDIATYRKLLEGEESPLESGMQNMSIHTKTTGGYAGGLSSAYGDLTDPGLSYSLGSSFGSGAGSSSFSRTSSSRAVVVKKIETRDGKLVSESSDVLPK
T4 chain 2: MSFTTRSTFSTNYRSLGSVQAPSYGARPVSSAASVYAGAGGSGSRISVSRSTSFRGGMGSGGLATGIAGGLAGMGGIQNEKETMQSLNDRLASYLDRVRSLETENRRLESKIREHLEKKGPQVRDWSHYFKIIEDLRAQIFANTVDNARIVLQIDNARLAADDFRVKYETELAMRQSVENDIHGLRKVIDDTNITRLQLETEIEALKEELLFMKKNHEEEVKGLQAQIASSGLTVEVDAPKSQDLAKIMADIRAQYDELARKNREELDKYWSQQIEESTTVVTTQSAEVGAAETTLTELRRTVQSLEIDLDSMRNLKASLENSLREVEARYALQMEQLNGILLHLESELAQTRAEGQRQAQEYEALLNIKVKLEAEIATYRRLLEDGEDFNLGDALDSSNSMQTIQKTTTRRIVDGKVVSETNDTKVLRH
Described as above.

In experiment [5] the target is T5, intact K8/K18(1-72) heterotypic complex (human, UniProt P05787 2-483; P05783 2-73).
T5 construct: Heterotypic complex of two GST fusion proteins; also called K18(1-72)/intact K8; not shown: glutathione S-transferase (GST) fusion partner, modified pGEX-2T vector
T5 chain 1: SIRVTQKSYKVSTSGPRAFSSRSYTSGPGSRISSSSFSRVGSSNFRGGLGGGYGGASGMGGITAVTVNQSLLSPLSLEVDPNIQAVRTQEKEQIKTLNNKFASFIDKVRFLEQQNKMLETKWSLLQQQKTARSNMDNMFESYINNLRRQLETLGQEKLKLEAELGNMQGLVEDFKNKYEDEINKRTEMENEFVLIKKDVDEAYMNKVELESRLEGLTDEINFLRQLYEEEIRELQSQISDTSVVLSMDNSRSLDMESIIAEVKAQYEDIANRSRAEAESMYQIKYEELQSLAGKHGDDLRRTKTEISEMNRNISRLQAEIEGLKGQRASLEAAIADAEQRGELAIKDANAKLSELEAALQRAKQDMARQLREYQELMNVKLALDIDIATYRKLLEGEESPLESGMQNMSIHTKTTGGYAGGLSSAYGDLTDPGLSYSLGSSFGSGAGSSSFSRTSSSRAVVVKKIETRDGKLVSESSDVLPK
T5 chain 2: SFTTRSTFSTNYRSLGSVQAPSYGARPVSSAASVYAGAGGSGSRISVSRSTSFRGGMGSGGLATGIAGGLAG
Described as above.

Experiment [6] has as its target T6, K8(1-65)/intact K18 heterotypic complex (human, UniProt P05787 2-66; P05783 2-430).
T6 construct: Heterotypic complex of two GST fusion proteins; not shown: glutathione S-transferase (GST) fusion partner, modified pGEX-2T vector
T6 sequence 1: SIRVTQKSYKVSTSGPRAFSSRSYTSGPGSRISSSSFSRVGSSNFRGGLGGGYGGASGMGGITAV
T6 sequence 2: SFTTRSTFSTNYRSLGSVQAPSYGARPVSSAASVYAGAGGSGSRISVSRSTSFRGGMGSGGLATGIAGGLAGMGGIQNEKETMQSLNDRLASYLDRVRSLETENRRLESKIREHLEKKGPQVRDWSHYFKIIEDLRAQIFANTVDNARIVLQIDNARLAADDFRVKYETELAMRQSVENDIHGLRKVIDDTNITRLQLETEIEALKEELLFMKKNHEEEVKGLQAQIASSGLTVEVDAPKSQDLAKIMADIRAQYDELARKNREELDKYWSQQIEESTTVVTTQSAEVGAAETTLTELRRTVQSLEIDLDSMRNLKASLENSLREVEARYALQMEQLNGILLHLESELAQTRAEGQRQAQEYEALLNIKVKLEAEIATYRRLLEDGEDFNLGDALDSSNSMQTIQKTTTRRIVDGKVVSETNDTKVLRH
The description is as above.

B1: human monoclonal IgM antibody COU-1 (antibody, V domains shown)
VH: GAEVKKPGASVKVSCKASDYTFSSYYMHWVRQAPGQGLEWMGIINPSGGSTSYAQKFQGRVTMTRDTSTNTVYMELSSLRSEDTAVYYCARDQVVVAATLSNYGMDVWGQGTTVTVSS
VL: ELTQSPGTLSLSPGERATLSCRASQSVSSSYLAWYQQKPGQAPRLLIYDASNRATGIPARFSGSGSGTDFTLTISSLEPEDFAVYYCQQGTNWGIAFGQGTRLDIKR
notes: Human IgM with kappa light chain, secreted by hybridoma B9165 (ECACC 87040201), purified from culture supernatant; also called HMab COU-1; HuMab COU-1
For the molecule B1, the binding result in experiment [1] is listed as “no binding (tested: COU-1 5 µg/ml)”; in experiment [2], “no binding (tested: 5 µg/ml COU-1 (P-0285))”; in experiment [3], “no binding (tested: 5 µg/ml COU-1 (P-0285))”; in experiment [4], “no binding (tested: 5 µg/ml COU-1 (P-0285))”; in experiment [5], “no binding (tested: 5 µg/ml COU-1 (P-0285))”; in experiment [6], “no binding (tested: 5 µg/ml COU-1 (P-0285))”.
